Results on one molecule are retold here after article PMC3155546 (PLoS ONE, 2011).

This assay deals with T1, GST-TPPP1–219 (human, UniProt O94811 1-219).
T1 construct: also called GST-TPPP(FL); full-length TPPP
Nature of the assay: co-IP. To be noted: both partners purified.

T1 sequence (O94811 whole entry): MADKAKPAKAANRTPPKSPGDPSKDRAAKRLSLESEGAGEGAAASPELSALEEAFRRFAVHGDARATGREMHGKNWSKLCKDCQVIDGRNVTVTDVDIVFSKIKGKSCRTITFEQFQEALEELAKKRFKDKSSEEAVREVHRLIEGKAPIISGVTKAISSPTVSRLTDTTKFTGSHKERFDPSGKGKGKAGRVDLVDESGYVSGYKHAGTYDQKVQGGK

KTNMKHMAGAAAAGAVVGGLG (domain or fragment) [GST-PrP106–126]: the binding result is given as “binds”.
